Measured values from article doi:10.1101/2025.11.18.689095 (2025).
Several values for one entry are separate records, joined by “and”; a condition that tells them apart may be missing. Equal values may be shown once. Read-outs that look alike come from different tables or passages of the source. Where no end group is shown, it is not given here.

How the values were obtained:
[1] = target: T1, human Tom70 (residues 108–608) (human, UniProt O94826 108-608); assay: ITC; run 2
T1 chain: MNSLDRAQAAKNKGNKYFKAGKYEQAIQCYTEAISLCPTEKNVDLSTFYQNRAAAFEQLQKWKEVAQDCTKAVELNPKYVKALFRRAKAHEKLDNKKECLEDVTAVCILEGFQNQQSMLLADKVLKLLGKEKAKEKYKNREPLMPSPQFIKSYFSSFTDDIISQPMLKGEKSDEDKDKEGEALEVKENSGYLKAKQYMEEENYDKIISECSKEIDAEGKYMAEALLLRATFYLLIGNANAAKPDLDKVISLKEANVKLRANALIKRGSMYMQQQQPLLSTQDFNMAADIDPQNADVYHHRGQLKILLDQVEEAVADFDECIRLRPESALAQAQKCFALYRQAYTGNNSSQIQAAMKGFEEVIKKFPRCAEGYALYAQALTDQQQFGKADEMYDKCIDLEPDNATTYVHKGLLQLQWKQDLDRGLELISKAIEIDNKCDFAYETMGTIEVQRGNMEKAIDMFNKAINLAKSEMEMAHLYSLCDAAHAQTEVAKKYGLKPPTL

[2] = target: T2, Tom70:Orf9b_(Helix) complex (human | SARS-CoV-2, UniProt O94826 108-608); assay: ITC
T2 chain 1: T1 chain
T2 chain 2: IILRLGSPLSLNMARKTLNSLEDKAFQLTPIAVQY

[3] = target: T1, human Tom70 (residues 108–608); assay: ITC
[4] = target: T1, human Tom70 (residues 108–608); assay: ITC; average
[5] = target: T1, human Tom70 (residues 108–608); assay: ITC; run 1
[6] = target: T1, human Tom70 (residues 108–608); assay: ITC; run 3
[7] = target: T2, Tom70:Orf9b_(Helix) complex; assay: ITC

## YDTSRMEEVD-OH [Hsp90_(EEVD) peptide]
[1]
  Kd: 10.9 µM
[2]
  Kd: 12 µM
[3]
  Kd: 12 µM
[4]
  Kd: 11.9 µM
[5]
  Kd: 12.8 µM
[6]
  Kd: 11.9 µM
[7]
  Kd: 12.4 µM and 12.8 µM and 12.3 µM and 11.8 µM
